{"source": "the domain aggregation screens of Martell et al. (2025)", "data": [{"test": "soluble fraction after stress (log2 fold change); higher = more stays soluble; pooled small domains, quantitative proteomics", "conditions": "stress: pH 4", "how_it_was_run": "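Aggregation propensity here comes from the fold change in the soluble amount of each small protein domain after acid stress, measured in pooled custom libraries by high-throughput quantitative proteomics. The acid stress was pH 4. On the log2 scale, higher values mean more of the domain stayed soluble.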", "values": [{"sequence": "HMNIEANLEDILRRAMPSAAKLILENSLNINKIIGTGKEGRITKGDVLLYLKDKNLILENILN", "soluble fraction (log2)": 0.0861}, {"sequence": "HMNIEEAESILKEIKTVLTDKEYEVYTLRAKGFTYQEIASLLNTTTKSVDGALSRIKTKINNIK", "soluble fraction (log2)": 0.0204}, {"sequence": "HMNIFKLYEENIGPLTPMIADILKEDEAEFPDYWIREAIEIAVKKNARNWKYVHAVLESWQKE", "soluble fraction (log2)": -0.259}, {"sequence": "HMNILKAPMPGLILDVIVKESDLVKKGDPVIILEAMKMENILSSPVDGIVKEIKVNPQQTVEKNNTLIKFE", "soluble fraction (log2)": -0.469}, {"sequence": "HMNILNFSENIIKLRHKKGITQEELADFVGVTKASVSKWETKQSLPDIMLLPRLAAYFDVTVDELLGYEP", "soluble fraction (log2)": -0.115}, {"sequence": "HMNINHEINIKSKKKISILENNPNLSQFYLTKNPDQYNYNLVFSDKSELNKLKEKLESDNEVEDIDIRYG", "soluble fraction (log2)": -0.195}, {"sequence": "HMNINTEMEKVSYSLGVNIASSLKQQGWELDAKSLSDAFVDVFNGNKLLIDEKEASSILQNYQQKIANK", "soluble fraction (log2)": -1.1}, {"sequence": "HMNIQKYFAGREQFIELLEAVGIRTLEQFASADPSTVLPELHQAKRMLKLQTEIPSAPVFREWVNQALS", "soluble fraction (log2)": -0.901}, {"sequence": "HMNIQPAMLNAANGGVAWKERGISMSQIMKRNAHTAEGSQKLWDYAFENFFQKNIDAGNIRDDR", "soluble fraction (log2)": -0.237}, {"sequence": "HMNIVKGDTTANVRVVQQRLYNLGYYTYKVDGIWGTRTKTAVKKFQKDKGLVADGIVGAKTEKALGITLT", "soluble fraction (log2)": -0.252}, {"sequence": "HMNIVVSSIDSNSFEIVNKETGEQAVISYDKETKKGFVLINGVKKEFFQDGNKVYYDGYVIAE", "soluble fraction (log2)": -0.466}, {"sequence": "HMNKDEFLNELKSYLSILEDEEQADILEEYTQHIDMKISTGLSEAEAIRDFGNVSELAAQILEAY", "soluble fraction (log2)": -0.343}, {"sequence": "HMNKIGTIVSINGPIVKTAGDVGFVMHEMVYVGKEKLVGEVIGLTTDFTIVEVYEETSGIKPGETIEGT", "soluble fraction (log2)": 0.00293}, {"sequence": "HMNKKEIISVLEKIIPPSQIKNINIFGSELVIDLNIDNPSLHAKKKLEKSIMSSFDENLKIIVNFSVE", "soluble fraction (log2)": 0.22}, {"sequence": "HMNKLSISALAETVSTKRKEKSMTQQDLSDATGINRALISRLEQKDFIPSIPQLEKLEEILGFELEEVF", "soluble fraction (log2)": -0.998}, {"sequence": "HMNKMHKLPSVSEILNKVRLQKIHNESFIKFKIKEEIDRYRKLAKKDQLFLSRDEITYEIIEKLLNFSMPS", "soluble fraction (log2)": -0.771}, {"sequence": "HMNKMIDAPDLTGLSLEDAKLVLEANKLQLGTVSHEPSDKPEDVVISQDPMEGQEIQQGGKVNLVVSYGD", "soluble fraction (log2)": -0.104}, {"sequence": "HMNKNNLRNVSSKIRKSRRVLNLSQAELSKKLDISPSYLNLIESGKRPITVPLLIKLGNILGISLKDL", "soluble fraction (log2)": 0.201}, {"sequence": "HMNKNQIGTNAGIVWKLLSDNVHWEYDKLKHASGLSDRDLNAAIGWLAREDKIDFDIDEQHDRLFL", "soluble fraction (log2)": -0.255}, {"sequence": "HMNKPKIIINSVDDSVFSDYVKDSLSIAEVARSIGIDNNKINTSVYREIHKRIDSLKLDTSHFTGGAWN", "soluble fraction (log2)": -0.634}, {"sequence": "HMNKPLFVYPNPVHQGKINLSKATNFMVVDLLGQTVNKTNYGKDFSIDNLPNGVYFIKTTEGEIIKFMK", "soluble fraction (log2)": -0.496}, {"sequence": "HMNKQEFLNTLRIIFKKANVLDVESIIDVYEEHFAVGYEKGLNDEQIIKSLGTPKEIYTSYVEAGI", "soluble fraction (log2)": -1.16}, {"sequence": "HMNKSGVVLIRVTVDASGRVTSAAYEPKGSTTSDVELVAEARKAALRTRFTESRTVIEGGVITYIFKL", "soluble fraction (log2)": -0.0968}, {"sequence": "HMNKSYTVPDVRGMTVEEAQEAEGVKDIFTVHVQGTRKTDEYQPGQIVEQDPIAGRTRKSNFVIEVYVAE", "soluble fraction (log2)": -0.237}, {"sequence": "HMNKTQLQIEDEVLKPLIAEIFSKSKGRFGARKIRSKLMGLGYTASERRILRLMKELGLSSAG", "soluble fraction (log2)": "≥ 0.43"}, {"sequence": "HMNKTVKIPNVSNLSREDAESVLKENGISVNSEVKQIESDTIEKGKVVKTDPSIGTSVKKGRSITIYVSSG", "soluble fraction (log2)": 0.134}, {"sequence": "HMNKWMQLASEEDKKLFNEAPKEIQDSITESAKFFDIRTKADVDTFWANTGLRQMKQQAMLNESFVNEY", "soluble fraction (log2)": -0.482}, {"sequence": "HMNLDMVINKIGIVTEDIKQDKIGEVKVLGKRWSAYSNTELKKDEKVKILSIDGVKLKVEKI", "soluble fraction (log2)": 0.413}, {"sequence": "HMNLGAHVYWRNHRAYGDFREYEDVGGGREALALPGSTWGTKDPRVAQALFAARLTEFQEARVGR", "soluble fraction (log2)": -0.148}, {"sequence": "HMNLGVIYSLKAEVRSEPNTFSTRLFEVHEGLKVSINQLENDWVEIELLDGKTGWISNDQIRLI", "soluble fraction (log2)": -0.772}, {"sequence": "HMNLIFFSENLSTFRKEKGWTQSELAEKLGVKANTISNYEKGISTPDYKIIAKLRELFEMPTDVLLYSNLS", "soluble fraction (log2)": -0.97}, {"sequence": "HMNLLDYDFFEKMSSKEQEEIVEKVYIDFLNKSTGTNSPFYLKLFEKGKKSYIVNWLNENNF", "soluble fraction (log2)": -1.06}, {"sequence": "HMNLLSPREKQSLTLYASGLTLREVASELKLSPNSVGKFISRGKFKLNKSGAIVNSKTSIYLELKKRNLI", "soluble fraction (log2)": 0.108}, {"sequence": "HMNLNESVELGQELLSQALAQLGIRGELSPSTIDKLLAESSAKSMEELYADIGIGKRMPALVARHIFGLMD", "soluble fraction (log2)": -0.491}, {"sequence": "HMNLQAYQSVLDKLNEEYGTTFRFPTEEELHEVGLTNTVDPRTATVSATEFEKYMRPIAERISQANL", "soluble fraction (log2)": -0.315}, {"sequence": "HMNLSAREWTSADGSRTFQGELTGFQDGKVKVRRSDGKSLVFAIELLSESDQQFIKTNQLVIAKKDED", "soluble fraction (log2)": -0.752}, {"sequence": "HMNLYHALDQQGEVYLTIPPRQSGRGKVTLMIDGRVREMDAMTDGDALKTGSKVRVTEILDENALKVEAM", "soluble fraction (log2)": -0.0493}, {"sequence": "HMNMAEETLDTAAKILKAAEEEFMEKGYGNAKMMSIAARAGVSHSMLHYYYRSKGKLFQMIFDEKA", "soluble fraction (log2)": -1.06}, {"sequence": "HMNMAEQGISLDSEAGKARFVSQALPLLKQLPDGVFKQRMLNQLADRVEVTADFIAQQLAQLKAA", "soluble fraction (log2)": -0.266}, {"sequence": "HMNMAVELEDGTQIFVFSEDGEFAGKRAVIADEEGRPTEENAPAGTHTLRDGRSIVVGEGGVIESVVET", "soluble fraction (log2)": -0.708}, {"sequence": "HMNMEYQKAINHIVQMVKDGQLIVGSKIPSERDLSESLGIGRNSTREAISILRGMGLVESRHGSGNYIAKD", "soluble fraction (log2)": 0.22}, {"sequence": "HMNMGEKIRSLIGQFGVTSEDLKNLSVANLLIRMNQEAGDSKTKGILASLLETVNKAGVGNLTPDALGIK", "soluble fraction (log2)": 0.064}, {"sequence": "HMNMLGEQVRNIRKSRGFTLKALAEQTGLSIGYISQIERNLTDPSLSTLRKISAALDVPTYLFMG", "soluble fraction (log2)": 0.0605}, {"sequence": "HMNMLGSNIKYLRNRHKLSQQELSEKLGVPRSSLSDYERGHTQVGLDSLIKLADIFDVKIDDLLRSNLSHR", "soluble fraction (log2)": -0.261}, {"sequence": "HMNMPHEIDANFISSLGRLIDNHGKNYGDFQIFREMFLDYFPRFDELSSNNKEKINRRLYKFFETLFG", "soluble fraction (log2)": -1.44}, {"sequence": "HMNMVEESVKKSSQWAVFEPNTISTWVKIQAMIENYLYQKWKEGALAGAKPEHAFFVKVGLGETM", "soluble fraction (log2)": 0.0622}, {"sequence": "HMNNEISINGNKIYFNKNISKVFIYDISGKLIKHKNNFNNNFIDLSEFNSAFYIIKALDINENYTTKKIFL", "soluble fraction (log2)": -0.597}, {"sequence": "HMNNFTPEHLEKDIEGSLFFRRLKETAREEPGSLTVAQKDFIQMWHDQADGVYTLRQVFVQTAFDHVRSL", "soluble fraction (log2)": 0.22}, {"sequence": "HMNNFTQSALDTIDGIGKRRKKLLLNHFGSVKLIENASIEDIKKIDGISDLVANKIYNFFNKN", "soluble fraction (log2)": -0.173}, {"sequence": "HMNNGAEIGAEIRSLRKARGLTLEDLAAKIGRSVGYISQVERGISPLTIPNLKAIAEVLGVGINWFFRGEA", "soluble fraction (log2)": 0.228}, {"sequence": "HMNNILNYTIAELMEILKIDDLETENVINSSNNLINKSINENNFPLAEFYEDVKNNLIEFIETFDS", "soluble fraction (log2)": -1.08}, {"sequence": "HMNNLELSEEEKSVLTIIEKEGLIELDKLKTKLELSNKKWDKTLKFLTKNKLAKVVKNDNGLFVEL", "soluble fraction (log2)": 0.0993}, {"sequence": "HMNNLLEDIKARLMAQAEAGGHIDTETELAEHFGVTRYRIRKELDLLSQMGLLRRQPKNGIEVLTV", "soluble fraction (log2)": 0.22}, {"sequence": "HMNNLNDIIEIIRIYAKNYARNNPSWNHSELINRIRDKALGEAEDYNIRLSEEDLALITELSLRGL", "soluble fraction (log2)": -1.24}, {"sequence": "HMNNMVNTLLKLLAEQDVLRGIVRRFTPSSVFVFLQNEEVEVELPLQGRSLAPGQLVELTQEGASVALKRL", "soluble fraction (log2)": -0.679}]}]}
